Here are results for three substances from publication PMC3002993.

Experiment in all cases: co-immunoprecipitation (HA-specific IP), Western blot densitometry
For orientation: Immunoblotting shows a protein as a band on a membrane.

For assay [1], the target named is envelope glycoprotein E2 of JFH1 (UniProt Q99IB8). Particulars: harvested 72 h later, two independent experiments, read off a plot.
Assay [2] concerns the target nonstructural protein 3 (NS3) of JFH1 (UniProt Q99IB8). The note with it: Huh7.5 cells transfected with full-length genome, harvested 72 h later; two independent experiments; read off a plot.
Assay [3] has as its target nonstructural protein 5A (NS5A) of JFH1mut4-6 (UniProt Q99IB8). The note with it: Huh7.5 cells transfected with full-length genome, harvested 72 h later; two independent experiments; read off a plot.
In assay [4] the target is p7 of JFH1 (UniProt Q99IB8). The note with it: Huh7.5 cells transfected with full-length genome, harvested 72 h later; two independent experiments; read off a plot.
Assay [5] has as its target NS3 Q221L of JFH1. The note with it: W35F-NS3 genome; Huh7.5 cells, harvested 72 h later; two independent experiments; read off a plot.
Assay [6] concerns the target E2 V341A of JFH1. Particulars: F77A-E2 genome; Huh7.5 cells, harvested 72 h later; two independent experiments; read off a plot.

“HA- and Flag-tagged NS2 of JFH1mut4-6 (HAF-NS2) (from UniProt Q99IB8) CT1.h”: the percent of parent turned out to be 30% in assay [1] (Huh7.5 cells transfected with full-length genome); 84% in assay [1] (genome also carries the pseudoreversion p7-E3D (CT1.h-p7), Huh7.5 cells); 26% in assay [2]; 56% in assay [3]; 23% in assay [4].

m1; m4 NS2:W35F; NS3:Q221L: the percent of parent in assay [5] is 52%.

On to m1; m2 NS2:F77A; E2:V341A, for which the percent of parent in assay [6] worked out at 89%.
